Measurements as given in US20210380680A1 (ZLLP, published 2021).

B1: hz282-2 (antibody, V domains shown)
VH: QVQLQESGPGLVKPSETLSLTCTVSGFSLTSYNVYWIRQPPGKGLEWIGVIWNTGATRYNSALKSRVTISKDTSKNQVSLKLSSVTAADTAVYYCARDSAMPAIPFAYWGQGTLVTVSS
VL: DIVMTQSPDSLAVSLGERATINCKSSQSLFGSVRQKNYLAWYQQKPGQPPKLLIYLASTRESGVPDRFSGSGSGTDFTLTISSLQAEDVAVYYCQQYYDIPWTFGGGTKVEIK
notes: humanized IgG; constant regions not specified
B2: hz282-14 (antibody, V domains shown)
VH: QVQLQESGPGLVKPSETLSLTCTVSGFSLTSYNVYWIRQPPGKGLEWIGVIWNTGATRYNSALKSRVTISKDTSKNQVSLKLSSVTAADTAVYYCARDSAMPAIPFAYWGQGTLVTVSS
VL: DIQMTQSPSSLSASVGDRVTITCKSSQSLFGSVRQKNYLAWYQQKPGKSPKLLIYLASTRESGVPDRFSGSGSGTDFTLTISSLQPEDFAKYYCQQYYDIPWTFGGGTKVEIK
notes: as for B1
B3: hz282-6 (antibody, V domains shown)
VH: QVQLQESGPGLVKPSETLSLTCTVSGFSLTSYNVYWIRQPPGKGLEWIGVIWNTGATRYNSALKSRVTISKDTSKNQVSLKLSSVTAADTAVYYCARDSAMPAIPFAYWGQGTLVTVSS
VL: DIVMTQSPDSLAVSLGERATINCKSSQSLFGSVRQKNYLAWYQQKPGQSPKLLIYLASTRESGVPDRFSGSGSGTDFTLTISSLQAEDVAKYYCQQYYDIPWTFGGGTKVEIK
notes: as for B1
B4: hz282-16 (antibody, V domains shown)
VH: QVQLQESGPGLVKPSETLSLTCTVAGFSLTSYNVYWIRQPPGKGLEWIGVIWNTGATRYNSALKSRVTISKDTSKSQVSLKLSSVTAADTAVYYCARDSAMPAIPFAYWGQGTLVTVSS
VL: DIQMTQSPSSLSASVGDRVTITCKSSQSLFGSVRQKNYLAWYQQKPGKSPKLLIYLASTRESGVPDRFSGSGSGTDFTLTISSLQPEDFAKYYCQQYYDIPWTFGGGTKVEIK
notes: as for B1
B5: hz282-18 (antibody, V domains shown)
VH: QVQLQESGPGLVKPSETLSLTCTVSGFSLTSYNVYWIRQPPGKGLEWIGVIWNTGATRYNSALKSRVTISKDTSKNQVSLKLSSVTAADTAVYYCARDSAMPAIPFAYWGQGTLVTVSS
VL: DIVMTQSPSSLSASVGDRVTINCKSSQSLFGSVRQKNYLAWYQQKPGKSPKLLIYLASTRESGVPDRFSGSGSGTDFTLTISSLQPEDFAKYYCQQYYDIPWTFGGGTKVEIK
notes: as for B1
B6: hz282-7 (antibody, V domains shown)
VH: QVQLQESGPGLVKPSETLSLTCTVSGFSLTSYNVYWIRQPPGKGLEWIGVIWNTGATRYNSALKSRVTISKDTSKSQVSLKLSSVTAADTAVYYCARDSAMPAIPFAYWGQGTLVTVSS
VL: DIVMTQSPDSLAVSLGERATINCKSSQSLFGSVRQKNYLAWYQQKPGQSPKLLIYLASTRESGVPDRFSGSGSGTDFTLTISSLQAEDVAKYYCQQYYDIPWTFGGGTKVEIK
notes: as for B1
B7: 413H9F8-H1L2 (antibody, V domains shown)
VH: EVQLVESGGGLVQPGGSLRLSCAASGFTFSSFGMHWVRQAPGKGLEWVSYISSGSSPIYYVDKLKGRFTISRDNAKNSLYLQMNSLRAEDTAVYYCARAGYAVRNALDYWGQGTLVTVSS
VL: DIVMTQSPDSLAVSLGERATINCKSSQSLLNVGNQKNYLAWYQQKPGQPPKLLIYGASTRESGVPDRFSGSGSGTDFTLTISSLQAEDVAVYFCQNDLFYPLTFGGGTKVEIK
notes: as for B1
B8: 413H9F8-H4L1 (antibody, V domains shown)
VH: EVQLVESGGGLVQPGGSLRLSCAASGFTFSSFGMHWVRQAPGKGLEWVAYISSGSSPIYYVDKLKGRFTVSRDNAKNSLYLQMTSLRAEDTAVYYCARAGYAVRNALDYWGQGTLVTVSS
VL: DIVMTQSPDSLAVSLGERATINCKSSQSLLNVGNQKNYLAWYQQKPGQPPKLLIYGASTRESGVPDRFSGSGSGTDFTLTISSLQAEDVAVYYCQNDLFYPLTFGGGTKVEIK
notes: as for B1
B9: 413H9F8-H4L4 (antibody, V domains shown)
VH: EVQLVESGGGLVQPGGSLRLSCAASGFTFSSFGMHWVRQAPGKGLEWVAYISSGSSPIYYVDKLKGRFTVSRDNAKNSLYLQMTSLRAEDTAVYYCARAGYAVRNALDYWGQGTLVTVSS
VL: DIVMTQSPDSLAVSLGERATISCKSSQSLLNVGNQKNYLAWYQQKPGQPPKLLIYGASTRESGVPDRFIGSGSGTDFTLTISSLQAEDVAVYFCQNDLFYPLTFGAGTKVEIK
notes: as for B1
B10: 413H9F8-H2L4 (antibody, V domains shown)
VH: EVQLVESGGGLVQPGGSLRLSCAASGFTFSSFGMHWVRQAPGKGLEWVAYISSGSSPIYYVDKLKGRFTISRDNAKNSLYLQMNSLRAEDTAVYYCARAGYAVRNALDYWGQGTLVTVSS
VL: DIVMTQSPDSLAVSLGERATISCKSSQSLLNVGNQKNYLAWYQQKPGQPPKLLIYGASTRESGVPDRFIGSGSGTDFTLTISSLQAEDVAVYFCQNDLFYPLTFGAGTKVEIK
notes: as for B1
B11: 413H9F8-H3L4 (antibody, V domains shown)
VH: EVQLVESGGGLVQPGGSLRLSCAASGFTFSSFGMHWVRQAPGKGLEWVAYISSGSSPIYYVDKLKGRFTVSRDNAKNSLYLQMNSLRAEDTAVYYCARAGYAVRNALDYWGQGTLVTVSS
VL: DIVMTQSPDSLAVSLGERATISCKSSQSLLNVGNQKNYLAWYQQKPGQPPKLLIYGASTRESGVPDRFIGSGSGTDFTLTISSLQAEDVAVYFCQNDLFYPLTFGAGTKVEIK
notes: as for B1
B12: 413H9F8-H3L3 (antibody, V domains shown)
VH: EVQLVESGGGLVQPGGSLRLSCAASGFTFSSFGMHWVRQAPGKGLEWVAYISSGSSPIYYVDKLKGRFTVSRDNAKNSLYLQMNSLRAEDTAVYYCARAGYAVRNALDYWGQGTLVTVSS
VL: DIVMTQSPDSLAVSLGERATINCKSSQSLLNVGNQKNYLAWYQQKPGQPPKLLIYGASTRESGVPDRFIGSGSGTDFTLTISSLQAEDVAVYFCQNDLFYPLTFGGGTKVEIK
notes: as for B1
B13: 413H9F8-H4L3 (antibody, V domains shown)
VH: EVQLVESGGGLVQPGGSLRLSCAASGFTFSSFGMHWVRQAPGKGLEWVAYISSGSSPIYYVDKLKGRFTVSRDNAKNSLYLQMTSLRAEDTAVYYCARAGYAVRNALDYWGQGTLVTVSS
VL: DIVMTQSPDSLAVSLGERATINCKSSQSLLNVGNQKNYLAWYQQKPGQPPKLLIYGASTRESGVPDRFIGSGSGTDFTLTISSLQAEDVAVYFCQNDLFYPLTFGGGTKVEIK
notes: as for B1
B14: 413H9F8-H3L1 (antibody, V domains shown)
VH: EVQLVESGGGLVQPGGSLRLSCAASGFTFSSFGMHWVRQAPGKGLEWVAYISSGSSPIYYVDKLKGRFTVSRDNAKNSLYLQMNSLRAEDTAVYYCARAGYAVRNALDYWGQGTLVTVSS
VL: DIVMTQSPDSLAVSLGERATINCKSSQSLLNVGNQKNYLAWYQQKPGQPPKLLIYGASTRESGVPDRFSGSGSGTDFTLTISSLQAEDVAVYYCQNDLFYPLTFGGGTKVEIK
notes: as for B1
B15: 413H9F8-H1L4 (antibody, V domains shown)
VH: EVQLVESGGGLVQPGGSLRLSCAASGFTFSSFGMHWVRQAPGKGLEWVSYISSGSSPIYYVDKLKGRFTISRDNAKNSLYLQMNSLRAEDTAVYYCARAGYAVRNALDYWGQGTLVTVSS
VL: DIVMTQSPDSLAVSLGERATISCKSSQSLLNVGNQKNYLAWYQQKPGQPPKLLIYGASTRESGVPDRFIGSGSGTDFTLTISSLQAEDVAVYFCQNDLFYPLTFGAGTKVEIK
notes: as for B1
B16: 413H9F8-H2L3 (antibody, V domains shown)
VH: EVQLVESGGGLVQPGGSLRLSCAASGFTFSSFGMHWVRQAPGKGLEWVAYISSGSSPIYYVDKLKGRFTISRDNAKNSLYLQMNSLRAEDTAVYYCARAGYAVRNALDYWGQGTLVTVSS
VL: DIVMTQSPDSLAVSLGERATINCKSSQSLLNVGNQKNYLAWYQQKPGQPPKLLIYGASTRESGVPDRFIGSGSGTDFTLTISSLQAEDVAVYFCQNDLFYPLTFGGGTKVEIK
notes: as for B1
B17: 413H9F8-H4L2 (antibody, V domains shown)
VH: EVQLVESGGGLVQPGGSLRLSCAASGFTFSSFGMHWVRQAPGKGLEWVAYISSGSSPIYYVDKLKGRFTVSRDNAKNSLYLQMTSLRAEDTAVYYCARAGYAVRNALDYWGQGTLVTVSS
VL: DIVMTQSPDSLAVSLGERATINCKSSQSLLNVGNQKNYLAWYQQKPGQPPKLLIYGASTRESGVPDRFSGSGSGTDFTLTISSLQAEDVAVYFCQNDLFYPLTFGGGTKVEIK
notes: as for B1
B18: 413H9F8-H3L2 (antibody, V domains shown)
VH: EVQLVESGGGLVQPGGSLRLSCAASGFTFSSFGMHWVRQAPGKGLEWVAYISSGSSPIYYVDKLKGRFTVSRDNAKNSLYLQMNSLRAEDTAVYYCARAGYAVRNALDYWGQGTLVTVSS
VL: DIVMTQSPDSLAVSLGERATINCKSSQSLLNVGNQKNYLAWYQQKPGQPPKLLIYGASTRESGVPDRFSGSGSGTDFTLTISSLQAEDVAVYFCQNDLFYPLTFGGGTKVEIK
notes: as for B1

Columns and labels:
[1] = target: T1, CLDN18.2 endogenously expressed on SNU620 gastric cancer cells (UniProt P56856-2 1-261, limits assumed); test: FACS Exp. 3, SNU620 cells
T1 construct: whole, on cells; also called SU620

[2] = target: T2, human Claudin 18.2 (CLDN18.2) (human, UniProt P56856-2 1-261); test: FACS Exp. 1, MFI ratio CHO-18.2 over CHO-18.1
T2 construct: whole, on cells; recombinantly expressed on CHO, HEK293, NCI-N87, NUGC4 or PANC-1 cells; also called CHO-CLDN18.2

[3] = target: T2, human Claudin 18.2 (CLDN18.2); test: FACS on CHO-CLDN18.2 cells
[4] = target: T2, human Claudin 18.2 (CLDN18.2); test: cell-based or functional assay
[5] = target: T2, human Claudin 18.2 (CLDN18.2); test: cell-based or functional assay; remark: listed apart in the source

Binder	MFI_SNU620 (@30 ug/ml) [1]	MFI_CHO-18.2/CHO-18.1 (@30 ug/ml) [2]	EC50 [3]	other results
B1	1060 MFI	521	–	–
B2	1220 MFI	798	–	–
B3	1290 MFI	521	–	–
B4	1280 MFI	550	–	–
B5	1210 MFI	781	–	–
B6	1250 MFI	624	–	–
B7	–	–	2.18 nM	–
B8	–	–	2.69 nM	–
B9	–	–	2.34 nM	–
B10	–	–	2.8 nM	–
B11	–	–	2.74 nM	% ADCC @ 6.67 nM, NCI-N87-CLDN18.2, FcR-TANK [4]: 16%; ADCC EC50, NCI-N87-CLDN18.2, FcR-TANK [4]: 0.35 nM; % specific cytotoxicity @ 6.67 nM, NUGC4-CLDN18.2, PBMC [5]: 28.7%; ADCC EC50, NUGC4-CLDN18.2, PBMC [5]: 6.09 nM
B12	–	–	2.24 nM	–
B13	–	–	2.62 nM	% ADCC @ 6.67 nM, NCI-N87-CLDN18.2, FcR-TANK [4]: 15.4%; ADCC EC50, NCI-N87-CLDN18.2, FcR-TANK [4]: 0.47 nM; % specific cytotoxicity @ 6.67 nM, NUGC4-CLDN18.2, PBMC [5]: 27.8%; ADCC EC50, NUGC4-CLDN18.2, PBMC [5]: 7.01 nM
B14	–	–	2.42 nM	–
B15	–	–	3.32 nM	–
B16	–	–	2.49 nM	–
B17	–	–	2.45 nM	–
B18	–	–	2.14 nM	–
